Results: US9433687B2, “Anti-Notch3 antibodies and antibody-drug conjugates” (Pfizer Inc., priority 2012, dated 2016)

Key:
[1] = biological target: T1, mouse Notch3 expressed on the cell surface of U2OS/mNotch3 cells (Mus musculus, UniProt Q61982); assay: Cell-based ELISA, U2OS/mNotch3 cells; conditions: Table 3; N/B = non-binding
T1 construct: U-2 OS cells stably over-expressing human or mouse full length Notch3 protein on cell surface; expressed in transfected cells; host or cells: U-2 OS (human osteosarcoma)
Procedure: Humanized hu28 and hu75, and rat-human chimeric, ch28 and ch75, anti-Notch3 antibodies were screened for cell surface Notch3 binding in a cell-based ELISA. U-2 OS cells stably over-expressing human or mouse full length Notch3 protein on cell surface (hereinafter U2OS/hNotch3 and U2OS/mNotch3, respectively) were plated at 50,000 cells/well in 96 well plates (white opaque, BD/VWR) the day before ELISA assay. On the day of the ELISA, culture media was removed from wells and serially diluted (1:3 in blocking buffer) antibody solutions were applied to the plate. Plates were incubated at room temperature for 2 hours before being washed with PBS-Mg/Ca. HRP-conjugated secondary antibody was then applied and incubated with cells for 1 hour as described above for recombinant protein ELISA. […] Data plotting and analyses were performed with Microsoft Excel and Graphpad-Prism software.

HCC2429 lung xenografts = assay: HCC2429 lung xenograft model (unconjugated antibodies); type: in vivo, mouse; conditions: for tumor volume (mm^3 ± SEM): iv Q4dx4
Procedure: Additional in vivo experiments were performed with the HCC2429 lung cancer cell line using an unconjugated rat-human chimeric anti-Notch3 antibody, ch75-hIgG1, to determine whether ch75-hIgG1's Notch3 signaling inhibition contributed to the observed potency of the anti-Notch3 hu75-ADCs. To generate xenografts, nude (Nu/Nu) female mice were implanted subcutaneously with 3.5×10^6 HCC2429 cells in 50% Matrigel (BD Biosciences).
The HCC2429 lung model was dosed intravenously Q4d×4 with PBS vehicle, rat-human chimeric anti-Notch3 antibody, ch75-hIgG1, and humanized anti-Notch1 antibody, hu438 VH1.1/VL1.8, at the does provided in Table 22. From 8 animals, mean tumor masses (±SEM) for each treatment group were calculated and compared to the control PBS vehicle group. P-values based on analysis of variance (ANOVA) were calculated to determine statistical significance of observed growth inhibition of anti-Notch treatments versus control PBS using Excel built-in statistical functions. Percent (%) growth inhibition values were calculated from measurements on the final day of the study for drug-treated compared with vehicle-treated mice with the formula 100*{1−[(TreatedDay 14−TreatedDay 0)/(ControlDay 14−ControlDay 0)]}.

HCC2429 (lung cancer) = assay: In vitro cytotoxicity (MTS), HCC2429; type: cell-based, human; conditions: HCC2429; data not shown
Procedure, shortened: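 Cells with endogenous Notch3 cultured four days with increasing concentrations of anti-Notch3 ADCs (chimeric or humanized antibodies with various linker-payloads, including cysteine-mutant conjugates); non-targeted ADCs served as specificity controls. Viability by MTS; IC50 from logistic non-linear regression, expressed as ng Ab/mL, with DAR given.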

T1 sequence (Q61982 40-2318): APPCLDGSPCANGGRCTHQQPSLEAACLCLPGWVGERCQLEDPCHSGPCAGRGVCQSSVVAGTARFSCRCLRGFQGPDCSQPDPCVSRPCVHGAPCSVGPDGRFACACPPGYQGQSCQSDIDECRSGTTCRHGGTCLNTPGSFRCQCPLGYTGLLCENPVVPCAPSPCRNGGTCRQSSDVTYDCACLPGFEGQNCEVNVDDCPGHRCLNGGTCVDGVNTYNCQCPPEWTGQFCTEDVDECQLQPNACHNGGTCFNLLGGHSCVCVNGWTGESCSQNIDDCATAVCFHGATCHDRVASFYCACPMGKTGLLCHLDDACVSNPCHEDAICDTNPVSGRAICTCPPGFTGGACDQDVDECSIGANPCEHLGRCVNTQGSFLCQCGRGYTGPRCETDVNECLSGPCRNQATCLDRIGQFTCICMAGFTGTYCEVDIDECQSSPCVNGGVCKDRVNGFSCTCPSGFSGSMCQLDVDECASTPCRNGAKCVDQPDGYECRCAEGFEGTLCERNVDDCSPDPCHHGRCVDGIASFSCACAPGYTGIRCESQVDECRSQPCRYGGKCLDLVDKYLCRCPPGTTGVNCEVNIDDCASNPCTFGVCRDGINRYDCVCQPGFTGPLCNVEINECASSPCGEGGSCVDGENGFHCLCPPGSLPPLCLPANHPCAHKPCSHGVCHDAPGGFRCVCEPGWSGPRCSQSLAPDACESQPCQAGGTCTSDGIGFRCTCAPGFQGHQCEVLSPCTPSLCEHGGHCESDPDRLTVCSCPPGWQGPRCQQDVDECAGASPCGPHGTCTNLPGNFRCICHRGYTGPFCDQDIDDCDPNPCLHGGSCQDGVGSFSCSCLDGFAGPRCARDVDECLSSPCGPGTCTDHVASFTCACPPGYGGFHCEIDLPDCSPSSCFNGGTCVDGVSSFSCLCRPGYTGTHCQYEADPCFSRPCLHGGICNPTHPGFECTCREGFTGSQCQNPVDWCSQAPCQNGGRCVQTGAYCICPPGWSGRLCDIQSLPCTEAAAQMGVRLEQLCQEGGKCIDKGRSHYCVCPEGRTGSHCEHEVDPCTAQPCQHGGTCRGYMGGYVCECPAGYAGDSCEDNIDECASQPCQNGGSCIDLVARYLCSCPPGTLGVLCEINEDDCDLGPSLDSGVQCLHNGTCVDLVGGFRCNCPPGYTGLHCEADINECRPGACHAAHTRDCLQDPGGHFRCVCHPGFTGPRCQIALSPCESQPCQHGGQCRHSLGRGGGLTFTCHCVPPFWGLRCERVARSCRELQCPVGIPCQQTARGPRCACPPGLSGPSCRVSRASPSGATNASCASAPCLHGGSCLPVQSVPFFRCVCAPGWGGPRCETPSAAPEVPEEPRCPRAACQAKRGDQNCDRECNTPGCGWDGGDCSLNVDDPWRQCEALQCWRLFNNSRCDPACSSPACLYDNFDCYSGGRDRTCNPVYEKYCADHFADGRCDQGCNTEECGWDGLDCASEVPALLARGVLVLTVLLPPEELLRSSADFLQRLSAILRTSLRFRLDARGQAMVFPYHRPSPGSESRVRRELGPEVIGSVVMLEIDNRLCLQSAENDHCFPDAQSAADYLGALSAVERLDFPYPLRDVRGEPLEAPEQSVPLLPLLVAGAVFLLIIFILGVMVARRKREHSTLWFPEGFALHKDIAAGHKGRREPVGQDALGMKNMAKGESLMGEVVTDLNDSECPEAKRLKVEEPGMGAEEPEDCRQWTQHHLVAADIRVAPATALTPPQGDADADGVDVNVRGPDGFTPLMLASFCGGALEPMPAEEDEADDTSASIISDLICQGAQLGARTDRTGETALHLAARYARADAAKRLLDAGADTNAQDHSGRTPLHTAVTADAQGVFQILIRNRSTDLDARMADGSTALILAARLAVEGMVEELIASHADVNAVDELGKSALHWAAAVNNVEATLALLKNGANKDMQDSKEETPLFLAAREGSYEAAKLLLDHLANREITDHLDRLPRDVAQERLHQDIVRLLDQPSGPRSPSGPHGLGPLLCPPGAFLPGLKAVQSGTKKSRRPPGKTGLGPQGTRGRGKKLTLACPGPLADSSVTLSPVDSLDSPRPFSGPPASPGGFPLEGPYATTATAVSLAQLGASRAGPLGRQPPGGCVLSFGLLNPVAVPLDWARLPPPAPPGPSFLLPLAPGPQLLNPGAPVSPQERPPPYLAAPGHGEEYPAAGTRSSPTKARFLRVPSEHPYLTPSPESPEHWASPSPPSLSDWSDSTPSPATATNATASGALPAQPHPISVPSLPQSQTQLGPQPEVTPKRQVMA

| Molecule | EC50 (nM) cell surface Notch3 binding ELISA, Full-length Mouse Notch3 [1] | tumor volume (mm^3 ± SEM) (HCC2429 lung xenografts; Day 0, dose not given) | tumor volume (mm^3 ± SEM) (HCC2429 lung xenografts; Day 3) | tumor volume (mm^3 ± SEM) (HCC2429 lung xenografts; Day 5) | tumor volume (mm^3 ± SEM) (HCC2429 lung xenografts; Day 7) | tumor volume (mm^3 ± SEM) (HCC2429 lung xenografts; Day 10) | tumor volume (mm^3 ± SEM) (HCC2429 lung xenografts; Day 12) | tumor volume (mm^3 ± SEM) (HCC2429 lung xenografts; Day 14) | tumor growth inhibition compared to PBS vehicle (HCC2429 lung xenografts; final day of the study (Day 14)) | effect of unconjugated antibody on viability (HCC2429 (lung cancer)) |
| --- | --- | --- | --- | --- | --- | --- | --- | --- | --- | --- |
| ch75: rat-human chimeric anti-Notch3 antibody 75, rat variable regions fused with human IgG1 and human kappa (antibody, V domains shown) VH: QVKLLQSGAALVKPGASVKMSCKASGYAFTDYWVTWVKQSHGKSLEWIGEISPNSGGTNFNEKFKGKATLTVDKSTSTAYMELSRLTSEDSAIYYCTRGEIRYNWFAYWGQGTLVTVSS VL: NIVMTQSPKSMSISVGDRVTMNCKASQNVGNNIAWYQQKPGQSPKLLIYYASNRYTGVPDRFTGGGYGTDFTLTINSMQAEDAAFYYCQRLYNSPFTFGSGTKLEIK | N/B | 110 ± 5 mm^3 | 211 ± 24 mm^3 | 356 ± 41 mm^3 | 574 ± 59 mm^3 | 1054 ± 104 mm^3 | 1441 ± 139 mm^3 | 1821 ± 175 mm^3 | did not inhibit tumor growth | – |
| hu28 VH1.0/VL1.0: humanized r28 variant VH1.0/VL1.0, anti-Notch3 antibody (VH SEQ ID NO: 13, VL SEQ ID NO: 25) (antibody, V domains shown) VH: EVQLVESGGGLVQPGGSLRLSCAASGFTFRDYGMTWVRQAPGKGLEWVAYISSGSNYIYYAEAVKGRFTISRDNAKNSLYLQMNSLRAEDTAVYYCARRGPFVLDAWGQGTLVTVSS VL: DIQMTQSPSSLSASVGDRVTITCKASQSINRYLHWYQQKPGKAPKLLIYNANGLQTGVPSRFSGSGSGTDFTLTISSLQPEDFATYYCLQHNTWPDTFGGGTKVEIK | – | – | – | – | – | – | – | – | – | did not affect the viability |
